We go through one protein from patent US20140234321.

B1: Hunk (Hormonally Up-regulated, Neu-Tumor-Associated Kinase), mouse, 714-amino-acid ~80-kDa polypeptide (protein)
chain: MPAAAGDGLLGEPAAPGGDGGAEDTTRPAAACEGSFLPAWVSGVSRERLRDFQHHKRVGNYLIGSRKLGEGSFAKVREGLHVLTGEKVAIKVIDKKRAKKDTYVTKNLRREGQIQQMIRHPNITQLLDILETENSYYLVMELCPGGNLMHKIYEKKRLDEAEARRYIRQLISAVEHLHRAGVVHRDLKIENLLLDEDNNIKLIDFGLSNCAGILGYSDPFSTQCGSPAYAAPELLARKKYGPKIDVWSIGVNMYAMLTGTLPFTVEPFSLRALYQKMVDKAMNPLPTQLSTGAVNFLRSLLEPDPVKRPNIQQALANRWLNENYTGKVPCNVTYPNRISLEDLSPSVVLHMTEKLGYKNSDVINTVLSNRACHILAIYFLLNKKLERYLSGKSDIQDSICYKTQLYQIEKCRATKEPYEASLDTWTRDFEFHAVQDKKPKEQEKRGDFLHRPFSKKLDKNLPSHKQPSPSLITQLQSTKALLKDRKASKSGFPDKDSFVCRNLFRKTSDSNCVASSSMEFIPVPPPRTPRIVKKLEPHQPGPGSASILPKEEPLLLDMVRSFESVDREDHIELLSPSHHYRILSSPVSLARRNSSERTLSQGLLSGSTSPLQTPLHSTLVSFAHEEKNSPPKEEGVCSPPPVPSNGLLQPLGSPNCVKSRGRFPMMGIGQMLRKRHQSLQPSSERSLDASMSPLQPIAPSSLSFDMADGVKGQC
Regarding B1, in the series with histone H1, the “in vitro kinase assay of Hunk immunoprecipitates with [gamma-32P]ATP” value is “Hunk immunoprecipitates were able to phosphorylate both histone H1 and MBP in vitro”; the “in vitro kinase assay of anti-Hunk immunoprecipitates with gamma-32P-ATP and histone H1” value was “Hunk-associated kinase activity was substantially greater in immunoprecipitates prepared from transgenic when compared with wild type mammary glands”. Besides, the “in vitro kinase assay of Hunk immunoprecipitates with [gamma-32P]ATP” value in the series with myelin basic protein is “Hunk immunoprecipitates were able to phosphorylate both histone H1 and MBP in vitro”.
